Results published in article PMC10397247.

Legend:
Assay in all cases: two-hybrid library CCNG1;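 further: natural log of median RNA to DNA barcode read ratio; higher means stronger binding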
[1] = biological target: T1, 4H968-bN
T1 chain: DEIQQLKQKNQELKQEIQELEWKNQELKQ

[2] = biological target: T2, 4H683-bN
T2 chain: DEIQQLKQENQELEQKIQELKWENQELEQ

[3] = biological target: T3, 4H754-bN
T3 chain: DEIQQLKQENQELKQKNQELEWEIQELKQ

[4] = biological target: T4, 4H370-bA
T4 chain: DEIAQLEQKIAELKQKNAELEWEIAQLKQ

[5] = biological target: T5, 4H72-bH
T5 chain: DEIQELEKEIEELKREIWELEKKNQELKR

[6] = biological target: T6, 4H457-bN
T6 chain: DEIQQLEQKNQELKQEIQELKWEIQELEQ

[7] = biological target: T7, 4H346-bN
T7 chain: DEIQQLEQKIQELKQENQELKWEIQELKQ

[8] = biological target: T8, 4H3926-bN
T8 chain: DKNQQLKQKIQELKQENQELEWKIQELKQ

[9] = biological target: T9, 4H953-bN
T9 chain: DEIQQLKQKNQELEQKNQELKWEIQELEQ

[10] = biological target: T10, 4H4073-bN
T10 chain: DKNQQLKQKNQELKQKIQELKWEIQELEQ

[11] = biological target: T11, 4H855-bN
T11 chain: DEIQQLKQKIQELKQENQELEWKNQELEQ

[12] = biological target: T12, 4H575-bN
T12 chain: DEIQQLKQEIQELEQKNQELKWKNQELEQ

[13] = biological target: T13, 4H918-bN
T13 chain: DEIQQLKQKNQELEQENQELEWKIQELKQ

[14] = biological target: T14, 4H780-bN
T14 chain: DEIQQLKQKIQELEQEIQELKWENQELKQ

[15] = biological target: T15, 4H797-bN
T15 chain: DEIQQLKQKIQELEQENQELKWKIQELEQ

Binder DEIQQLEQKIQELKQENQELKWEIQELKQ [4H346-bN] has an interaction score [1] of -0.647, an interaction score [2] of 0.0158 and an interaction score [3] of -0.573. It also gave an interaction score [4] of 0.693, an interaction score [5] of 0.0876 and an interaction score [6] of -0.931. It also gave an interaction score [7] of 1.02, an interaction score [8] of 1.53 and an interaction score [9] of -0.533. The interaction score [10] was -0.58, the interaction score [11] was -0.517 and the interaction score [12] was -0.652. It also gave an interaction score [13] of -0.654, an interaction score [14] of 0.0007 and an interaction score [15] of -0.125.
